System: MS2 coat protein
Experiment: apparent KD of MS2 coat protein; designed switch direction (-1 OFF switch, 1 ON switch): -1; higher = weaker reporter binding
In short: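 The buffer was Tris-HCl pH 7.5 with KCl, MgCl2, BSA, DTT, tRNA and Tween-20. In it, SNAP-549-labelled MS2 coat protein was titrated in doubling steps from 0.7 or 1.5 nM to 3 µM over chip-bound RNA switches transcribed by stalled E. coli RNA polymerase on Illumina chips. Apparent KD is the per-design median over clusters of curve fits to normalised fluorescence.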

[1] = input ligand: microRNA oligo, concentration not stated
[2] = Eterna round: R95, input ligand: FMN 200 uM
[3] = Eterna round: R95, input ligand: microRNA oligo, concentration not stated
[4] = Eterna round: R95, input ligand: none

UUUUAACAAGCGAGAUCCUACAUGAGGAUCACCCAUGUAGACCAUGGUUUCCAUGGUCUUUUUGCUCGUCUUGUGUG [jl TITIN mod 6] (Eterna round: R97, puzzle: Sensor, turn-off variant 1)
apparent KD of MS2 coat protein (input ligand: FMN 200 uM): 22.5 nM
apparent KD of MS2 coat protein (input ligand: none): 23.3 nM

UUCGUGCAGCUUUGCUGUACGCGUACAUGAGGAUCACCCAUGUAGGAUAUGGUACGCUUUGCGUGCUAGAAGGAUAUGGAGAGG [JL EXNG3 1.34] (Eterna round: R96, puzzle: Exclusion NG 3)
apparent KD of MS2 coat protein (input ligand: FMN 200 uM): 62.9 nM
apparent KD of MS2 coat protein [1]: 28.7 nM
apparent KD of MS2 coat protein (input ligand: none): 37.6 nM

ACUCAGUGAGGAUAUCGCCAGAGAACCGUAACGGUCUCUGAUGAGAAGGCACAUGAGGAUCACCCAUGUAAGCA [EX4 C.3] (Eterna round: R97, puzzle: Exclusion 4)
apparent KD of MS2 coat protein (input ligand: FMN 200 uM): 278 nM
apparent KD of MS2 coat protein (input ligand: none): 174 nM

UCCUUACUUGAGGAUCACCCAAGUCAGGAUAUACACCAGAAUAAAUCCCAGCCCUGGCGUAGAAGGGACGGGUG [Esesle] (Eterna round: R97, puzzle: Exclusion 1)
apparent KD of MS2 coat protein (input ligand: FMN 200 uM): 23 nM
apparent KD of MS2 coat protein (input ligand: none): 25.1 nM

GAUUAUGCGAGCUUUAGGGACAUGAGGAUCACCCAUGUUCGUCUUAUUAAUCUAGGUGCACUAACAUACCUAAAUCU [JMF 32] (puzzle: Sensor v3, turn-off variant 1)
apparent KD of MS2 coat protein [2]: 21.9 nM
apparent KD of MS2 coat protein [3]: 39.4 nM
apparent KD of MS2 coat protein [4]: 21.7 nM

AGUCAAGAUGAGGAUAUCCGUGUAACAAACGCAGGAGAAGGCGUCACAUGAGGAUCACCCAUGUUGCCUCUAAG [Eternabot (L1) Solution 92] (Eterna round: R97, puzzle: Exclusion 6)
apparent KD of MS2 coat protein (input ligand: FMN 200 uM): 45.9 nM
apparent KD of MS2 coat protein (input ligand: none): 58.1 nM

AACCAGCGAGGAUAUGCUUGAGCUUGUUCUGGUUAUAAUCGACUUGAGGAUCACCCAAGUAGAAGGUGCUGGCG [EX2 #57] (Eterna round: R97, puzzle: Exclusion 2)
apparent KD of MS2 coat protein (input ligand: FMN 200 uM): 42.6 nM
apparent KD of MS2 coat protein (input ligand: none): 20 nM

UUUUAACAUGAGGAUCACCCAUGUGAGGAUAUCGAAAUUUAUAUUUAUAUUAAUAAUUCGAGAAGGCACAUUUU [JMF 77] (puzzle: Exclusion 1)
apparent KD of MS2 coat protein [3]: 155 nM

ACAUGAGGAUCACCCAUGUCCGGCUGGUCUGUUCCGGCUGUCGAGGAUAUAGUCCGGUGUUCGCGCUAGAAGGCGAGGGCUGGA [Aenatbe mod 48] (Eterna round: R96, puzzle: Exclusion NG 3)
apparent KD of MS2 coat protein (input ligand: FMN 200 uM): 88 nM
apparent KD of MS2 coat protein [1]: 29.9 nM
apparent KD of MS2 coat protein (input ligand: none): 43.6 nM

AAUAGUAAUAAGGAUAUCACUAGCCUCGGCUAGUGAGAAGGUAUUACAUGAGGAUCACCCAUGUGGUCAAUUAA [E6/4-A2] (Eterna round: R97, puzzle: Exclusion 6)
apparent KD of MS2 coat protein (input ligand: FMN 200 uM): 1110 nM
apparent KD of MS2 coat protein (input ligand: none): 1130 nM

AUUUUAAUAUAGGAUAUCGAAUUUAUUAUUUAACGAGAAGGAUAAACAUGAGGAUCACCCAUGUGGUAUCAUGG [JMFs Solution 2] (puzzle: Exclusion 6)
apparent KD of MS2 coat protein [3]: 113 nM

GCCAGAGCAGGAUAUUCAAUAUCACACAUGAGGAUCACCCAUGUCCGGCGAAAGCUGGAGGGAGAAGGGCUCUGGC [Fiskers Ex 5 - 14] (puzzle: Exclusion 5)
apparent KD of MS2 coat protein [3]: 49.4 nM

AAUUCGCAAGCGAGAUCCCACAUGAGGAUCACCCAUGUGCUCGUCUUAUAAGGUACUGUGACAAAAGUCACGGUACC [Mat - Sensor, turn-off var - Eli Mod - D84] (Eterna round: R97, puzzle: Sensor, turn-off variant 1)
apparent KD of MS2 coat protein (input ligand: FMN 200 uM): 14.3 nM
apparent KD of MS2 coat protein (input ligand: none): 13.2 nM

CACCGUAACAGAGGAUAUGAUACAUGAGGAUCACCCAUGUAAUAAAUGAGAAUUUCGAAUGUACCUCAGAAGGCUGGAACCGGC [Ostricism 80 - Jieux - Exclusion NG 2] (Eterna round: R96, puzzle: Exclusion NG 2)
apparent KD of MS2 coat protein [1]: 33.9 nM

AAGGGUGCCUUUAGAAAGACAUGAGGAUCACCCAUGUAGACUGAGGAUAUCCACUCCUAAGGACCGGAGAAGGCAGUGUAAUGC [Ex NG3 #62] (Eterna round: R96, puzzle: Exclusion NG 3)
apparent KD of MS2 coat protein (input ligand: FMN 200 uM): 62.1 nM
apparent KD of MS2 coat protein [1]: 18.6 nM
apparent KD of MS2 coat protein (input ligand: none): 31.8 nM

UGAUCAGACCGAGGAUAUAUAUGUAGGACCCACGUGAGUGGGUCCAGUACAUGAGGAUCACCCAUGUAGAAGGCGGUCUGAUCU [JL ENG2 1.87] (Eterna round: R96, puzzle: Exclusion NG 2)
apparent KD of MS2 coat protein (input ligand: FMN 200 uM): 19.2 nM
apparent KD of MS2 coat protein [1]: 10.7 nM
apparent KD of MS2 coat protein (input ligand: none): 15 nM

AAUGCGGACAAAGGAUAUUGCGGUGACCGGCUCGGCGUACCGAGCCUACAUGAGGAUCACCCAUGUAAGAAGGUUGUCGCUAAA [Mat - Exclusion NG 2 - Mod of JL - D74] (Eterna round: R96, puzzle: Exclusion NG 2)
apparent KD of MS2 coat protein (input ligand: FMN 200 uM): 43.1 nM
apparent KD of MS2 coat protein [1]: 13.8 nM
apparent KD of MS2 coat protein (input ligand: none): 17.6 nM

GCAGCAACUCUUACUAACUAAACAUGAGGAUCACCCAUGUCUCAGGAUAUGGUCUGGAUUACAGGCCAGAAGGGAGAAAGCUGC [Eli exng3 - 038] (Eterna round: R96, puzzle: Exclusion NG 3)
apparent KD of MS2 coat protein (input ligand: FMN 200 uM): 15.6 nM
apparent KD of MS2 coat protein [1]: 11.2 nM
apparent KD of MS2 coat protein (input ligand: none): 16.9 nM

AAAGACCAAGUGAGGAUAUUAUGGACAAUGGAACAUGAGAAGGCACAUGAGGAUCACCCAUGUGAAUAGGGACG [Eternabot (Original) Solution 22] (Eterna round: R97, puzzle: Brourd's mod of Exclusion 4)
apparent KD of MS2 coat protein (input ligand: FMN 200 uM): 33.5 nM
apparent KD of MS2 coat protein (input ligand: none): 19.4 nM

UACCUGAGGCUUUGCUUUAGGCUUACAUGAGGAUCACCCAUGUAGGAUAUGGUAGGCUUUGCUUACCAGAAGGACAUGGUAAUU [JL ENG3 1.07] (Eterna round: R96, puzzle: Exclusion NG 3)
apparent KD of MS2 coat protein (input ligand: FMN 200 uM): 90.9 nM
apparent KD of MS2 coat protein [1]: 59.9 nM
apparent KD of MS2 coat protein (input ligand: none): 64.6 nM

GGAUUUUCUGAGGAUAUUGCAUCACCCGAUUUAUAAGAAGGCAGAACAUGAGGAUCACCCAUGUGGGUCUCUAG [Bingo-Bango-26] (Eterna round: R97, puzzle: Exclusion 6)
apparent KD of MS2 coat protein (input ligand: FMN 200 uM): 30.6 nM
apparent KD of MS2 coat protein (input ligand: none): 24.5 nM

CCGCGUGAUUAGGAUAUCAAACUAGCGUGUACAUGAGAAGGGAUCACAUGAGGAUCACCCAUGUAAGGGAUCCU [Eternabot (L1) Solution 69] (Eterna round: R97, puzzle: Exclusion 6)
apparent KD of MS2 coat protein (input ligand: FMN 200 uM): 93.2 nM
apparent KD of MS2 coat protein (input ligand: none): 56.1 nM

GAUCAACAUGAGGAUCACCCAUGUGAGGAUAUGAUACUAUGUACUUCGGUACAUAGUAUCAGAAGGCAUAUGAA [Ex1-3: 36] (puzzle: Exclusion 1)
apparent KD of MS2 coat protein [3]: 52 nM

ACGUGAUACCUGUCGGUGGACAUGAGGAUCACCCAUGUAAGCUUUUUGCUCGUCUUAUAACCCGGUGACAGACCUUC [Racequbebe] (puzzle: Sensor v3, turn-off variant 1)
apparent KD of MS2 coat protein [2]: 97.7 nM
apparent KD of MS2 coat protein [3]: 544 nM
apparent KD of MS2 coat protein [4]: 142 nM

AAGAAGAUAGGAUAUACGAGGAGAGGAGAGAGAAGGUGAGGACAUGAGGAUCACCCAUGUAGAAGGAUCAGGAA [JR_Exclu2_Sub064] (puzzle: Exclusion 2)
apparent KD of MS2 coat protein [2]: 81.3 nM
apparent KD of MS2 coat protein [3]: 88 nM
apparent KD of MS2 coat protein [4]: 89.9 nM

CGUGGACAUGAGGAUCACCCAUGUGAGGAUAUCGGCUGGUACGUGUUGGCUGGCAUCUCGAGAAGGCACAUAGU [Exclusion 1 V62] (puzzle: Exclusion 1)
apparent KD of MS2 coat protein [3]: 40.8 nM

Source: the supplement of paper PMC9170038
